Reference: publication PMC8769072, “Proteome‐scale mapping of binding sites in the unstructured regions of the human proteome” (Molecular Systems Biology, 2022)

How the values were obtained:
[1] = target: FITC-labelled phospho-RAF1 255-264 probe peptide (FITC-QRSTpSTPNVH) (human); assay: fluorescence polarisation; saturation: protein in serial dilution added to FITC-labelled probe peptide (master mix with 10 nM probe and 2 mM DTT), 50 mM KPO4 or NaPO4 pH 7.5; fitted to a quadratic equation
[2] = target: FITC-labelled Myc 320-328 probe peptide (FITC-…) (human); assay: as above
[3] = target: FITC-labelled NCOR2 1307-1322 probe peptide (FITC-…) (human); assay: as above
[4] = target: importin subunit alpha‐3 (KPNA4) ARM domain (UniProt O00629); assay: FP competition against FITC-NCOR2 1307-1322 probe; conditions: reference: unphosphorylated peptide
[5] = target: MDM2 SWIB, cleaved from the His‐GST tag, for affinity measurements (human); assay: fluorescence polarisation; competition: unlabelled peptide in serial dilution displaces a FITC-labelled probe peptide from the bait domain (master mix with protein at four times the KD of the probe, 10 nM probe, 2 mM DTT); 50 mM KPO4 or NaPO4 pH 7.5; triplicates; probe for KEAP1 Kelch: FITC-NFE2L1 228-243, other probes in Dataset EV6
[6] = target: KPNA4 ARM (importin subunit alpha-3, armadillo repeat domain) (human) (UniProt O00629); assay: fluorescence polarisation; competition: unlabelled peptide in serial dilution against KPNA4 ARM (master mix at four times the KD) with the probe FITC-Myc(320-328), probe of the major pocket; 50 mM KPO4 pH 7.5; Ki calculated from IC50
[7] = target: KPNA4 ARM (importin subunit alpha-3, armadillo repeat domain) (human) (UniProt O00629); assay: fluorescence polarisation; competition: unlabelled peptide in serial dilution against KPNA4 ARM (master mix at four times the KD) with the probe FITC-NCOR2(1307-1322), probe of the minor pocket; 50 mM KPO4 pH 7.5; Ki calculated from IC50

“14-3-3 protein sigma (SFN 14-3-3) (from UniProt P31947 1-248) (domain or fragment)” showed a Kd [1] of 524000 nM.

For “KPNA4 ARM domain, MBP-tagged (from UniProt O00629 1-521) (domain or fragment)”, the Kd [2] was 30 nM and the Kd [3] was 228 nM.

“NCOR1 class III NLS peptide (from UniProt O75376) pS1242 peptide” was tested, and the “binding against the reference” value ([4]; sites S1242) was “same”.

For “NCOR1 class III NLS peptide (from UniProt O75376) pS1246 peptide”, the “binding against the reference” value ([4]; sites S1246) was “weaker”.

With “NCOR1 class III NLS peptide (from UniProt O75376) pY1247 peptide” the “binding against the reference” value ([4]; sites Y1247) was “same”.

“NUMB_(615–630) peptide, synthetic (from UniProt P49757 615-630)” was tested, and the Ki [5] was 3300 nM.

For SPRTN 400-416 peptide, the IC50 [6] was 260 nM.

Work on ZNF532 1139-1154 peptide yielded an IC50 [7] of 1300 nM.
